Activity data for one substance are collected here from patent US5556750.

For the series, the system named is MutY (Escherichia coli). To be noted: A.G to C-G correction by complementation of mutS mutY extract; fraction V.

For the substance A.G mismatch heteroduplex, the activity came out at 480000 units/mg.
